The values below come from patent publication US20240016931A1 (JIANGSU HENGRUI PHARMACEUTICALS, published 2024).

The experiment concerns the target T1, His-tagged human TSLP antigen (huTSLP-his) (human).
T1 construct: Secreted from HEK293E and purified on nickel; whole entry named; also called Human TSLP-his
Description: ELISA, coated huTSLP-his.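 Also: binding of antibodies to plate-bound TSLP read as absorbance at 450 nm after TMB colour development, EC50 derived from binding curves.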

Numbering of substitutions follows the chain as printed. Names and notes keep the numbering of the source.

Description: The plate was incubated at 4° C. overnight. After the liquid was discarded, 5% skim milk (skim milk powder from Brightdairy) blocking solution diluted with PBS was added at 200 μL/well, and the plate was incubated in an incubator at 37° C. for 2 h for blocking. After the blocking, the blocking solution was discarded, and the plate was washed 3 times with a PBST buffer (PBS containing 0.1% (v/v) tween-20, pH 7.4). […] After the incubation, the plate was washed 3 times with PBST. […] After the plate was washed 6 times with PBST, a TMB chromogenic substrate (KPL, 52-00-03) was added at 50 μL/well, and the plate was incubated at room temperature for 10-15 min. Then, 1 M H₂SO₄ was added at 50 μL/well to stop the reaction. The absorbance at 450 nm was read with a NOVOStar microplate reader, and the EC₅₀ values for the binding of the TSLP antibodies to TSLP were calculated.

B1: hu3-06 (antibody, human IgG1, kappa, V domains shown)
VH: EVQLVQSGAEVKKPGASVKVSCKASGYTFTDDYMNWVRQAPGQRLEWMGIISPYNGGTSYNQKFKGRVTLTVDKSASTAYMELSSLRSEDTAVYYCAREDYDYDGYAMDHWGQGTTVTVSS
VL: EIVLTQSPATLSLSPGERATLSCRASSSVSYMHWYQQKPGQAPRPWIYATSNLASGVPARFSGSGSGTDYTLTISRLEPEDFAVYYCQQWSSNRTFGGGTKVEIKR
notes: IgG1-YTE, kappa
B1 registered a concentration for a half-maximal effect (EC50) of 0.594 nM.

B2: hu3-12 (antibody, human IgG1, kappa, V domains shown)
VH: B1 VH with H110Y
VL: B1 VL with D69S, W90S, S91D, S92N, N93V, T95G
notes: IgG1-YTE, kappa; also called hu3VH2-H110Y + hu3VL5
The molecule B2 yielded an EC50 of 0.152 nM.

B3: hu3-09 (antibody, human IgG1, kappa, V domains shown)
VH: B1 VH with R38K, M48I, V68A
VL: B1 VL
notes: IgG1-YTE, kappa
Consider B3, for which the response was half-maximal at 0.494 nM (EC50).

B4: hu3-01 (antibody, human IgG1, kappa, V domains shown)
VH: B1 VH with L70I, V72R, K74T
VL: B1 VL with W46L, V57I
notes: IgG1-YTE, kappa
For B4, the midpoint of the response, the EC50, lay at 0.849 nM.

B5: hu3-02 (antibody, human IgG1, kappa, V domains shown)
VH: B1 VH with L70I, V72R, K74T
VL: B1 VL
notes: IgG1-YTE, kappa
On to B5, for which a half-maximal effect (EC50) was put at 0.628 nM.

B6: hu3-04 (antibody, human IgG1, kappa, V domains shown)
VH: B1 VH
VL: B1 VL with P45L, W46L, V57I, Y70F
notes: IgG1-YTE, kappa
With B6, a half-maximal effect (EC50) was put at 0.435 nM.

B7: hu3-05 (antibody, human IgG1, kappa, V domains shown)
VH: B1 VH
VL: B1 VL with W46L, V57I
notes: IgG1-YTE, kappa
The molecule B7 registered a half-maximal effective concentration (EC50) of 0.517 nM.

B8: hu3-10 (antibody, human IgG1, kappa, V domains shown)
VH: B1 VH with R38K, M48I, V68A
VL: B1 VL with D69S
notes: IgG1-YTE, kappa
In the case of B8, the EC50 was found to be 0.388 nM.

B9: hu3-08 (antibody, human IgG1, kappa, V domains shown)
VH: B1 VH with R38K, M48I, V68A
VL: B1 VL with W46L, V57I
notes: IgG1-YTE, kappa
In turn, B9 showed an EC50 of 0.469 nM.

B10: hu3-07 (antibody, human IgG1, kappa, V domains shown)
VH: B1 VH
VL: B1 VL with D69S
notes: IgG1-YTE, kappa
Turning to B10, the EC50 was 0.385 nM.

B11: hu3-03 (antibody, human IgG1, kappa, V domains shown)
VH: B1 VH with L70I, V72R, K74T
VL: B1 VL with D69S
notes: IgG1-YTE, kappa
As for B11, the half-maximal effective concentration (EC50) came to 0.554 nM.

B12: hu179-09 (antibody, human IgG1, kappa)
heavy: EVQLVQSGAEVKKPGSSVKVSCKASGYTFSNYLIEWVRQAPGQGLEWIGVIDPGNGDTNYNENFKGRATLTADKSTSTAYIELSSLRSEDTAVYYCAREDNTGTAFDYWGQGTTVTVSSASTKGPSVFPLAPSSKSTSGGTAALGCLVKDYFPEPVTVSWNSGALTSGVHTFPAVLQSSGLYSLSSVVTVPSSSLGTQTYICNVNHKPSNTKVDKKVEPKSCDKTHTCPPCPAPELLGGPSVFLFPPKPKDTLYITREPEVTCVVVDVSHEDPEVKFNWYVDGVEVHNAKTKPREEQYNSTYRVVSVLTVLHQDWLNGKEYKCKVSNKALPAPIEKTISKAKGQPREPQVYTLPPSRDELTKNQVSLTCLVKGFYPSDIAVEWESNGQPENNYKTTPPVLDSDGSFFLYSKLTVDKSRWQQGNVFSCSVMHEALHNHYTQKSLSLSPGK
light: SIVMTQTPLSLSVTPGQPASISCKASQSVSSDVTWYLQKPGQSPQLLIYYVSNHYTGVPDRFSGSGSGTDFTLKISRVEAEDVGVYYCQQHHRFPLTFGQGTKLEIKRTVAAPSVFIFPPSDEQLKSGTASVVCLLNNFYPREAKVQWKVDNALQSGNSQESVTEQDSKDSTYSLSSTLTLSKADYEKHKVYACEVTHQGLSSPVTKSFNRGEC
notes: IgG1-YTE, kappa
Turning to B12, the EC50 was 0.157 nM.

B13: hu179-18 (antibody, human IgG1, kappa, V domains shown)
VH: EVQLVQSGAEVKKPGSSVKVSCKASGYAFSNYLIEWVRQAPGQGLEWIGVIDPGNGDTNYNENFKGRATLTADKSTSTAYMELSSLRSEDTAVYYCAREDNTGTAFDYWGQGTTVTVSS
VL: SIVMTQTPLSLSVTPGQPASISCKASQSVSSDVTWYLQKPGQSPQLLIYYVSNHYTGVPDRFSGSGSGTDFTFKISRVEAEDVGVYYCQQHHRFPLTFGQGTKLEIKR
notes: IgG1-YTE, kappa
B13 returned a 50% effective concentration (EC50) of 0.246 nM.

B14: hu179-11 (antibody, human IgG1, kappa, V domains shown)
VH: B13 VH with A28T, M81I
VL: B13 VL with S67Y, F73L
notes: IgG1-YTE, kappa
As to B14, the EC50 worked out at 0.137 nM.

B15: hu179-19 (antibody, human IgG1, kappa, V domains shown)
VH: B13 VH
VL: B13 VL with S67Y, F73L
notes: IgG1-YTE, kappa
B15 returned a 50% effective concentration (EC50) of 0.162 nM.

B16: hu179-08 (antibody, human IgG1, kappa)
heavy: B12 heavy
light: B12 light with S1D
notes: IgG1-YTE, kappa
As to B16, the EC50 came to 0.162 nM.

B17: hu179-10 (antibody, human IgG1, kappa, V domains shown)
VH: B13 VH with A28T, M81I
VL: B13 VL
notes: IgG1-YTE, kappa
The molecule B17 returned a concentration for a half-maximal effect (EC50) of 0.19 nM.

B18: hu179-17 (antibody, human IgG1, kappa)
heavy: B12 heavy with T28A, I81M
light: B12 light
notes: IgG1-YTE, kappa
For B18, a half-maximal effect (EC50) was put at 0.218 nM.

B19: hu179-16 (antibody, human IgG1, kappa)
heavy: B12 heavy with T28A, I81M
light: B12 light with S1D
notes: IgG1-YTE, kappa
As to B19, the concentration for a half-maximal effect (EC50) was 0.229 nM.

B20: hu119-20 (antibody, human IgG1, kappa)
heavy: EAQLVQSGAEVKKPGSSVKVSCKASGFTFSTYNMHWVRQAPGQGLEWIGAIYPGNGETSYNQKFKDRATLTVDKSTSTAYMELSSLRSEDTAVYYCAREDDYGEGYFDVWGQGTTVTVSSASTKGPSVFPLAPSSKSTSGGTAALGCLVKDYFPEPVTVSWNSGALTSGVHTFPAVLQSSGLYSLSSVVTVPSSSLGTQTYICNVNHKPSNTKVDKKVEPKSCDKTHTCPPCPAPELLGGPSVFLFPPKPKDTLYITREPEVTCVVVDVSHEDPEVKFNWYVDGVEVHNAKTKPREEQYNSTYRVVSVLTVLHQDWLNGKEYKCKVSNKALPAPIEKTISKAKGQPREPQVYTLPPSRDELTKNQVSLTCLVKGFYPSDIAVEWESNGQPENNYKTTPPVLDSDGSFFLYSKLTVDKSRWQQGNVFSCSVMHEALHNHYTQKSLSLSPGK
light: EIVLTQSPATLSLSPGERATLSCRASESVDNSGLSFMHWYQQKPGQPPRLLLYRASNLGSGIPARFSGSGSGTDFTLTISSLEPEDFAVYYCQQINTDPLTFGQGTKLEIKRTVAAPSVFIFPPSDEQLKSGTASVVCLLNNFYPREAKVQWKVDNALQSGNSQESVTEQDSKDSTYSLSSTLTLSKADYEKHKVYACEVTHQGLSSPVTKSFNRGEC
notes: IgG1-YTE, kappa
The molecule B20 gave a 50% effective concentration (EC50) of 0.341 nM.

B21: hu119-19 (antibody, human IgG1, kappa)
heavy: B20 heavy with A2V, F27G
light: B20 light
notes: IgG1-YTE, kappa
As for B21, it took 0.353 nM to reach a half-maximal effect (EC50).

B22: hu119-15 (antibody, human IgG1, kappa, V domains shown)
VH: EAQLVQSGAEVKKPGSSVKVSCKASGFTFSTYNMHWVRQAPGQGLEWIGAIYPGNGETSYNQKFKDRATLTVDKSTSTAYMELSSLRSEDTAVYYCAREDDYGEGYFDVWGQGTTVTVSS
VL: EIVLTQSPATLSLSPGERATLSCRASESVDNSGLSFMHWYQQKPGQAPRLLIYRASNLGSGIPARFSGSGSGTDFTLTISSLEPEDFAVYYCQQINTDPLTFGQGTKLEIKR
notes: IgG1-YTE, kappa
For B22, a half-maximal response (EC50) required 0.35 nM.

B23: hu119-17 (antibody, human IgG1, kappa, V domains shown)
VH: B22 VH with S77R
VL: B22 VL
notes: IgG1-YTE, kappa
Molecule B23 yielded an EC50 of 0.351 nM.

B24: hu119-16 (antibody, human IgG1, kappa, V domains shown)
VH: B22 VH with A2V, F27G, S77R
VL: B22 VL
notes: IgG1-YTE, kappa
Molecule B24 yielded a 50% effective concentration (EC50) of 0.366 nM.

B25: hu119-14 (antibody, human IgG1, kappa, V domains shown)
VH: B22 VH with A2V, F27G
VL: B22 VL
notes: IgG1-YTE, kappa
Consider B25, for which the concentration giving a half-maximal response (EC50) is 0.345 nM.

Usually EC50 stands for the concentration needed to bring the measured effect to its halfway point. Read a low EC50 as a more potent agent.
